Data on one molecule can be found in patent US20230047413A1 (Janssen / Centocor, published 2023).

In assay [1] the target is T1, Peptide-2 (human, phosphothreonine 212, phosphothreonine 217 (tau 2N4R numbering); short chain biotin (SCBiot) and dPEG4 at the N-terminus; amide at the C-terminus).
T1 construct: also called pT212/pT217-tau peptide (Peptide-2)
The assay can be described thus: SPR ProteOn, peptide captured, Fab as analyte; range of n=2; Peptide-2 (pT212/pT217); Table 6 run; lower end of n=2 range.

In assay [2] the target is T1, Peptide-2. In words: SPR ProteOn, peptide captured, Fab as analyte; range of n=2; Peptide-2 (pT212/pT217); Table 12 run; lower end of n=2 range. The protocol: A subset of HFA-PT3 monoclonal antibody variants, selected based on biophysical characterization and ELISA binding to PHF, were analyzed by Surface Plasmon Resonance (SPR) with a ProteOn XPR36 for binding to the following phosphopeptides: pT212/pT217-tau peptide (Peptide-2, SEQ ID NO: 48) and pT212-tau peptide (Peptide-8, SEQ ID NO: 54). All experiments were performed at 25° C. using PBST, pH 7.4, (Bio-Rad Cat#176-2720) as both running buffer and sample dilution buffer.
Fab/peptide binding. Biotinylated peptide was captured on a neutravidin-coated NLC biosensor chip pre-conditioned with PBST, and Fab was flowed over the surface to measure kinetic parameters. Approximately 5-10 RU of peptide was captured on the chip surface by diluting peptide to 10 ng/mL in PBST and injecting over the flow channels at 30 μL/min for 100 s. Serial dilutions of PT3 Fab (1.1 nM to 90 nM) were injected at 60 μL/min for 3 minutes (association phase), followed by 300 s of buffer only (dissociation phase).
Data were double referenced by subtraction of the interspot response, and the curves generated by the buffer only injection. The chip surface was regenerated with 0.85% phosphoric acid, followed by PBST injection before the next antibody titration injection. Data processing and analysis were performed using instrument software. The data were fit using a simple Langmuir 1:1 binding model.

For assay [3], the target named is T2, Peptide-7 (human, phosphothreonine 212, phosphoserine 214 (tau 2N4R numbering); SCBiot and dPEG4 at the N-terminus; amide at the C-terminus). The assay can be described thus: SPR ProteOn, peptide captured, Fab as analyte; range of n=2; Peptide-7 (pT212/pS214); lower end of n=2 range. The protocol: (§1) The binding affinity of PT3 Fab towards each of the fourteen tau phosphopeptides shown in Table 6 was assessed by surface plasmon resonance (SPR) using a Bio-Rad ProteOn XPR36. Peptides were synthesized by standard chemical methods (New England Peptide) with short-chain biotin and a PEG4 moiety at the N-terminus. Biotinylated peptide was captured on a neutravidin-coated NLC biosensor chip and PT3 Fab was flowed over the surface to measure kinetic parameters.
T2 sequence (peptide, as listed by the source): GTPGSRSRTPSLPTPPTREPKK
(§2) All experiments were performed at 25° C. using phosphate buffered saline, pH 7.4, 0.005% Tween 20 (PBST) as both running buffer and sample dilution buffer. Prior to running samples, the NLC chip was conditioned by running PBST over the chip surface for 1 h. Approximately 5-10 RU of peptide was captured on the chip surface by diluting peptide to 10 ng/mL in PBST and injecting over the flow channels at 30 μL/min for 100 s. Serial dilutions of PT3 Fab (1.1-90 nM) were analyzed and, with the exception of Peptide-8, each concentration was measured in duplicate. After capture of peptides, the antibody titration was injected at 60 μL/min for 3 minutes (association phase), followed by 300 s of buffer only (dissociation phase).
(§3) The data were double referenced by subtraction of the interspot response and the curves generated by the buffer-only injection. […] The data were analyzed using a simple Langmuir 1:1 binding model.

A further assay has as its target T3, Peptide-1 (human, phosphothreonine 212, phosphoserine 214, phosphothreonine 217 (tau 2N4R numbering); short chain biotin (SCBiot) and dPEG4 at the N-terminus; amide at the C-terminus).
T3 construct: also called tau peptide phosphorylated at T212/S214/T217
In words: SPR ProteOn, peptide captured, Fab as analyte; range of n=2. The protocol: as §1, §2
(§4) The data were double referenced by subtraction of the interspot response and the curves generated by the buffer-only injection. The chip surface was regenerated using a single injection of 0.85% phosphoric acid at 30 μL/min for 100 s contact time, followed by four injections of running buffer before the next antibody titration injection. The data processing and kinetic analysis were done using the instrument software. The data were analyzed using a simple Langmuir 1:1 binding model.

A further assay addresses Peptide-5 (human, phosphoserine 210, phosphoserine 214, phosphothreonine 217 (tau 2N4R numbering); SCBiot and dPEG4 at the N-terminus; amide at the C-terminus). The assay is described as above. As for the experimental part:
as §1, §2, §4

The target of assay [4] is T1, Peptide-2. Described as above. As for the experimental part:
as §1, §2, §4

Another assay concerns the target Peptide-4 (human, phosphoserine 210, phosphothreonine 217 (tau 2N4R numbering); SCBiot and dPEG4 at the N-terminus; amide at the C-terminus). The description is as above. The protocol: as §1, §2, §4
Assay [5] concerns the target T2, Peptide-7. The assay can be described thus: SPR ProteOn, peptide captured, Fab as analyte; range of n=2; Peptide-7 (pT212/pS214); upper end of n=2 range. The protocol: as §1, §2, §3
Another assay concerns the target Peptide-3 (human, phosphoserine 214, phosphothreonine 217 (tau 2N4R numbering); SCBiot and dPEG4 at the N-terminus; amide at the C-terminus). In words: SPR ProteOn, peptide captured, Fab as analyte; Peptide-3, phosphorylated at 214/217; n=3. The protocol: as §1, §2, §3

Values joined by “and” are separate entries in the source; they are usually repeats but may differ in a detail not shown here. Equal values may be shown once.

B1: PT3 Fab (B187) (Fab, V domains shown)
VH: EVKLVESGGDLVKPGGSLKLSCAASGFTFSSYAMSWVRQNPEKRLEWVASISKGGNTYYPNSVKGRFTISRDNARNILYLQMSSLRSEDTALYYCARGWGDYGWFAYWGQVTLVTVSA
VL: DIKMTQSPSSMYASLGERVTITCKASQDINRYLNWFQQKPGKSPKTLIYRANRLLDGVPSRFSGSGSGQDYSLTISSLDYEDMGIYYCLQYDEFPLTFGDGTKLELK
notes: Chimeric Fab: mouse variable regions, human IgG1/kappa constant region, 6xHis tag at the C-terminus of the heavy chain; also called mouse parental Fab of PT3
A word on the Kd: it is a measure of binding affinity in units of concentration. A higher Kd goes with a looser complex. The koff is the first-order rate constant of dissociation. In general, kon refers to the second-order rate constant of association. Low readings indicate slow association, high ones fast association. For the molecule B1, the Kd in the assay with Peptide-2 [1] is 0.09 to 0.45 nM; with Peptide-2 [2] it was 0.0738 to 0.101 nM; with Peptide-7 [3], 11.3 to 15.7 nM; with Peptide-5, 6.6 to 10.8 nM; in the assay with Peptide-2 [4], 0.09 to 0.45 nM; in the assay with Peptide-4 it was 6.48 to 6.71 nM. Further, the Kd in the assay with Peptide-7 [5] was 11.3 to 15.7 nM; with Peptide-3, 5.57 nM. Also, the off-rate (koff) with Peptide-1 is 0.000236 s⁻¹ and 0.000324 s⁻¹; with Peptide-2 [4] it was 9.1e-05 s⁻¹. Besides, the kon with Peptide-1 is 870000 M⁻¹ s⁻¹ and 1.67e+06 M⁻¹ s⁻¹.
